Laboratory results: article PMC7714070, “The role of the cytoskeletal proteins MreB and FtsZ in multicellular cyanobacteria” (FEBS Open Bio, 2020)

Target: the molecule itself
Assay: in vitro polymerisation seen by epifluorescence microscopy; Ni-NTA-purified FtsZ-His labelled with NHS-Fluorescein, in FtsZ polymerization buffer (50 mM MES, 50 mM KCl, 10 mM MgCl2, 2 mM GTP, pH 6.5), 40 min at 30 °C

B1: Polyhistidine tagged FtsZ from Fischerella muscicola PCC 7414 (natural protein, UniProt A0A2N6JXP9 1-430, looked up)
chain: MTLDNNQGLTYKNSQSPGQSTFSLAVNSTNPFNHSGLSFGQNNDSKKIEREETRIGDIVPGRVANIKVIGVGGGGSNAVNRMIASDVSGVEFWSINTDAQALTLAAAPSRLQIGQKLTRGLGAGGNPAIGTKAAEESRDEIATALDGADLVFITAGMGGGTGTGAAPIVAEVAKEMGALTVGVVTRPFIFEGRRRISQAEQGIEGLKSRVDTLIIIPNNKLLEVIPEQTPMQEAFRYADDVLRQGVQGISDIITIPGLINVDFADVRAVMADAGSALMGIGIGSGKSRAREAAIAAISSPLLECSIEGARGVVFNITGGSDLTLHEVNAAAETIYEVVDPNANIIFGAVIDDRLQGEVRLTVIATGFTGEAPAAQQSNVTQGRVVQPPPQRRPMQQPPAPNPPTQTPEPKEKGSVLDIPDFLRKRTPPRN
modifications: labelled with NHS-Fluorescein
notes: FtsZ of Fischerella muscicola PCC 7414; also called FtsZFm-His; FtsZ-His; source: E. coli BL21 (DE3), purified (Ni-NTA)
binding result: binds

B2: Polyhistidine tagged FtsZ from Anabaena sp. PCC 7120 (natural protein, UniProt P45482 1-428, looked up)
chain: MTLDNNQELTYRNSQSLGQPGFSLAVNSSNPFNHSGLNFGQNNDSKKISVENNRIGEIVPGRVANIKVIGVGGGGGNAVNRMIESDVSGVEFWSINTDAQALTLAGAPSRLQIGQKLTRGLGAGGNPAIGQKAAEESRDEIATALEGADLVFITAGMGGGTGTGAAPIVAEVAKEMGALTVGVVTRPFVFEGRRRTSQAEQGIEGLKSRVDTLIIIPNNKLLEVIPEQTPVQEAFRYADDVLRQGVQGISDIITIPGLVNVDFADVRAVMADAGSALMGIGVSSGKSRAREAAIAAISSPLLECSIEGARGVVFNITGGSDLTLHEVNAAAETIYEVVDPNANIIFGAVIDDRLQGEVRITVIATGFTGEIQAAPQQNAANARVVSAPPKRTPTQTPLTNSPAPTPEPKEKSGLDIPDFLQRRRPPKN
modifications: labelled with NHS-Fluorescein
notes: FtsZ of Anabaena sp; PCC 7120; also called FtsZAna-His; FtsZ-His; source: E. coli BL21 (DE3), purified (Ni-NTA)
binding result: binds
